In the series the target is HER2 extracellular domain (ECD) (UniProt P04626 23-652). Kind of series: flow cytometry on protein-coated beads; random-library background subtracted; Hanks buffer (SELEX binding buffer with 0.1 mg/mL salmon sperm DNA and 1 mg/mL BSA), 37 C, 30 min; pH not stated; aptamer pool heated 95 C 5 min then iced in SELEX. Conditions: protein: commercial; tags: covalently coupled to magnetic beads; label: FITC (5' via primer P1 in SELEX).

Experimental findings from article PMC3583217, “Novel HER2 Aptamer Selectively Delivers Cytotoxic Drug to HER2-positive Breast Cancer Cells in Vitro” are described below.

B1: HB5 (ssDNA)
DNA: AACCGCCCAAATCCCTAAGAGTCTGCACTTGTCATTTTGTATATGTATTTGGTTTTTGGCTCTCACAGACACACTACACACGCACA
Regarding B1, binding was characterised by a dissociation constant (Kd) of 316 nM.
